This assay has as its target T1, human EPOR ectodomain (ECD) fused to a human Fc domain (EPOR-Fc) (human, UniProt P19235 25-250).
T1 chain: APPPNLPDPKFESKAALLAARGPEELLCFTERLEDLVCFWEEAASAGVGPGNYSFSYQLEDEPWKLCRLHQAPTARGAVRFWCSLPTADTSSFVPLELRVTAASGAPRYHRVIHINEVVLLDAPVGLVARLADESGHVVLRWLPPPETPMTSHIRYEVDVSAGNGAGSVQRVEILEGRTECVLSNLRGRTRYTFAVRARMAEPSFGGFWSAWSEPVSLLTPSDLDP
The assay is described as follows: ELISA. In general terms: An ELISA detects its analyte on a solid surface through an enzyme-linked reagent.

EC50 data for one molecule are collected here from article PMC12442453 (2025).

B1: Db-Fc 1.1 (Fc fusion)
chain 1: EVQLVESGGGLVQPGGSLRLSCAASGFNLRSYYMHWVRQAPGKGLEWVASISPYYSYTYYADSVKGRFTISADTSKNTAYLQMNSLRAEDTAVYYCARHGYGAMDYWGQGTLVTVSS
chain 2: DIQMTQSPSSLSASVGDRVTITCRASQSVSSAVAWYQQKPGKAPKLLIYSASSLYSGVPSRFSGSRSGTDFTLTISSLQPEDFATYYCQQSSYSLITFGQGTKVEIK
Usually EC50 stands for the midpoint of the concentration-response curve. As for B1, the midpoint of the response, the EC50, lay at 0.9 nM.
